Assay results: patent US20240270841A1 (LG CHEM, published 2024)
One block for each binder: values may come before it.

Experiments:
[1] = target: T1, LILRB1 expressed on the surface of human natural killer cell KHYG-1 (human, UniProt Q8NHL6 24-650); assay: flow cytometry (iQue) on KHYG-1 NK cells, antibody 50 ug/mL
T1 construct: whole, on cells; also called LILRB1 on KHYG-1 cells; human NK cells (surface)
Procedure: In order to test whether or not 93 antibodies selected in Example 1.4 bind LILRB1 expressed on surface of immune cells, natural killer cell (NK cell) surface binding assay was performed. A human NK cell, KHYG-1 cell (JCRB) was cultured in RPMI 1640 medium (Gibco) supplemented with 10%(w/v) of FBS (Gibco) and 100 U/mL of interleukin-2 (Novartis). KHYG-1 cells were added to a U-bottom 96-well tissue culture plate (BD Falcon) at the amount of 5×10⁴ cells/well. Each of the selected antibodies was added to the well to the final concentration of 50 μg/mL per well and incubated at 4° C. for 1 hour.
In order to see the level of LILRB1-specific binding of the selected antibodies, a human IgG4 isotype control antibody (Biolegend) was treated in the same manner. After washing with FACS buffer, the cells were treated with an anti-human Fc-biotin antibody (life technologies) and incubated at 4° C. for 1 hour. After washing with FACS buffer, the cells were treated with streptavidin PE (BD Pharmigen) and incubated at 4° C. for 30 minutes. After washing with FACS buffer, the cells were resuspended and subjected to analysis using iQue screener (Sartorius).

[2] = target: T2, human LILRB1 protein (LILRB1-His, RnD systems Cat. No. 8989-T2) (human, UniProt Q8NHL6 24-458); assay: SPR (Biacore T200), antibody captured by anti-human IgG (Fc), LILRB1-His injected
T2 construct: Bought protein; also called human LILRB1-His; not shown: His tag
T2 sequence (Q8NHL6 24-458 limits assumed): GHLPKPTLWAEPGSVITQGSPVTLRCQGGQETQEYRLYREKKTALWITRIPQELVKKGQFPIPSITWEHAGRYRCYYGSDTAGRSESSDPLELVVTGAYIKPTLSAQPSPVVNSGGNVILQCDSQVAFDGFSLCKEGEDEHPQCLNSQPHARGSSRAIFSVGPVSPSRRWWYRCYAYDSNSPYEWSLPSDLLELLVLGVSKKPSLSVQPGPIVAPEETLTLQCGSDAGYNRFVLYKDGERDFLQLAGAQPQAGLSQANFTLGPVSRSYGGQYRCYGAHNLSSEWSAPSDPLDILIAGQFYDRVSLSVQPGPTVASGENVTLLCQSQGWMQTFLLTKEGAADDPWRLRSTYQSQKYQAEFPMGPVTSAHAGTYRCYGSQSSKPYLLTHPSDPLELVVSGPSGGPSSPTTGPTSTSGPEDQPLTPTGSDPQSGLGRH
Procedure: The binding affinities of the 93 antibodies, which were selected in Example 1.3, to the antigen, LILRB1, were measured using Biacore T200 (GE healthcare). An anti-human IgG (Fc) antibody (GE healthcare, Cat. No. BR-1008-39, final concentration of 25 μg/mL) was flowed at the flow rate of 5 μL/min for 360 seconds to be immobilized at 5000-7000 RU on Series S Sensor Chip CM5 (GE healthcare, Cat. No. BR-1005-30) using Amine Coupling Kit (GE healthcare, Cat. No. BR-1000-508).

T1 sequence (Q8NHL6 24-650): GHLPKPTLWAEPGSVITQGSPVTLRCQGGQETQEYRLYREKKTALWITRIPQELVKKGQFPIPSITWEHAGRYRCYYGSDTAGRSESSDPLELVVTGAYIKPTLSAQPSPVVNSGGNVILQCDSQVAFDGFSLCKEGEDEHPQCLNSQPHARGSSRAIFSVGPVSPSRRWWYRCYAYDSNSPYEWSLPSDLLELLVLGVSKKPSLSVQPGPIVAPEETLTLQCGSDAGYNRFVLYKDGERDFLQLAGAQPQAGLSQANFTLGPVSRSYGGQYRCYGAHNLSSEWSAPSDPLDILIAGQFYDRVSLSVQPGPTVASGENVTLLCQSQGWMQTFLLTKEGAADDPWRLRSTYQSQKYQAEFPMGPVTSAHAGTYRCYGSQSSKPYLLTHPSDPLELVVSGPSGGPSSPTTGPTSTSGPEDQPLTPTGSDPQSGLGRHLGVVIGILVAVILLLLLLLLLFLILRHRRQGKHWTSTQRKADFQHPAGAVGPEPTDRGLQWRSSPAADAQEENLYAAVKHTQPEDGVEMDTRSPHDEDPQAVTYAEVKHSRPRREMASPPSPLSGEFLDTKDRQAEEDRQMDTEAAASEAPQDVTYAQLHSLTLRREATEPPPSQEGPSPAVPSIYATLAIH

- Kd [2]: 16.2 nM
- koff [2]: 0.0095 s⁻¹
- kon [2]: 586000 M⁻¹ s⁻¹
B1: anti-LILRB1 antibody H2 (antibody, human IgG4 S228P, V domains shown)
VH: QVQLVQSGAEVKKPGASVKVSCKASGYTFTSYDIHWVRQATGQGLEWMGWISAYNGNTNYAQKLQGRVTMTTDTSTSTAYMELRSLRSDDTAVYYCARDGGDAFDIWGQGTLVTVSS
VL: SYELTQDPAVSVALGQTVRITCQGDSLRNYYASWYQQKPGQAPILVISGNNKRPSGIPDRFSGSSSGDTASLTISGAQAEDEADYYCNSLDSTYNHPIFGGGTKVTVLG
notes: human IgG4, lambda light chain; also called Antibody clone H2
- % of population 2 [1]: 29%
- Mean Fluorescence Intensity [1]: 239000

- Kd [2]: 45.2 nM
- koff [2]: 0.00205 s⁻¹
- kon [2]: 45400 M⁻¹ s⁻¹
B2: anti-LILRB1 antibody G11 (antibody, human IgG4 S228P, V domains shown)
VH: QVQLVQSGAEVKKPGESLKISCKGSGYSFTSYWIGWVRQMPGKGLEWMGIIYPGDSDTRYSPSFQGQVTISADKSISTAYLQWSSLKASDTAMYYCASQYYDGGYYMDVWGQGTLVTVSS
VL: QSALTQPRSVSGSPGQSVTISCTGTSSDVGGYNYVSWYQQHPGKAPKLMIYDVSKRPSGVPDRFSGSKSGNTASLTISGLQAEDEADYYCSSYSSSSTLVVFGGGTKLTVLG
notes: human IgG4, lambda light chain; also called Antibody clone G11
- % of population 2 [1]: 40.1%
- Mean Fluorescence Intensity [1]: 263000
